Reference: US20140322262A1

How the values were obtained:
[1] = biological target: centromere B protein (UniProt P07199); assay: Luminex AtheNA Multi-Lyte ANA Test, 0.15 µg mab per test
[2] = biological target: Histones; assay: as above
[3] = biological target: FMS peptide (T4; HIV-1); assay: SPR, FMS conjugate in DMPC liposomes
[4] = biological target: SS-A/Ro; assay: Luminex AtheNA Multi-Lyte ANA Test, 0.15 µg mab per test
[5] = biological target: Mab 4E10; assay: ELISA; gp140 (19.25-1230 nM) mixed with 10 µg/ml 4E10 MAb, added to wells with 1.35 µg cardiolipin

Chain of FMS peptide (T4; HIV-1) (P03375 656-683): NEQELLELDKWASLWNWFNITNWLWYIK
Chain of UniProt P07199 (P07199 2-599): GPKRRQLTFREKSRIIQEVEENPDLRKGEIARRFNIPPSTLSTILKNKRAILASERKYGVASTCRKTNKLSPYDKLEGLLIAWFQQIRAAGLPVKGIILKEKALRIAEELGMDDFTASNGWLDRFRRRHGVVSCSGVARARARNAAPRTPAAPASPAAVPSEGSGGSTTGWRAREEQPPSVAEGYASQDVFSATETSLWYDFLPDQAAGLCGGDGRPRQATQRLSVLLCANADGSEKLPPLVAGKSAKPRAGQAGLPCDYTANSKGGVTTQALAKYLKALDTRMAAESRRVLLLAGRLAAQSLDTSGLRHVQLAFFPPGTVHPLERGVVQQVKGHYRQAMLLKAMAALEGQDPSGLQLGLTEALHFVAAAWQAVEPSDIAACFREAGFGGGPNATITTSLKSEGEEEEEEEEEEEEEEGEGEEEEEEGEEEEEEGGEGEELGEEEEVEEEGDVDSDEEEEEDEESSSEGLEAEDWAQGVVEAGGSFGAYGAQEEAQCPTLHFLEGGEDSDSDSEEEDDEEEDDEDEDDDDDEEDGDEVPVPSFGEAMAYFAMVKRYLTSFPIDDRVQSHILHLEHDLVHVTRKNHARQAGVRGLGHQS

Substance	relative units based on a standard curve (relative units) [1]	relative units based on a standard curve (relative units) [2]	Kd [3] [nM]	relative units based on a standard curve (relative units) [4]	IC50 [5] [nM]
IgG1b12 (antibody)	479	185			
Mab 2F5 (antibody)	1780	1010	0.18	290	
Mab 4E10 (antibody)			27	221	
soluble HIV-1 Env gp140 oligomers (CON-S)					145
